US20250257126A1 (CAMBRIDGE ENTERPRISE, published 2025)
Where a chain is given by its changes, count along the chain named.

T1: murine LGR6 transgene (mouse, UniProt Q3UVD5 23-967)
T1 construct: whole, on cells; also called mLGR6
T1 sequence (looked up): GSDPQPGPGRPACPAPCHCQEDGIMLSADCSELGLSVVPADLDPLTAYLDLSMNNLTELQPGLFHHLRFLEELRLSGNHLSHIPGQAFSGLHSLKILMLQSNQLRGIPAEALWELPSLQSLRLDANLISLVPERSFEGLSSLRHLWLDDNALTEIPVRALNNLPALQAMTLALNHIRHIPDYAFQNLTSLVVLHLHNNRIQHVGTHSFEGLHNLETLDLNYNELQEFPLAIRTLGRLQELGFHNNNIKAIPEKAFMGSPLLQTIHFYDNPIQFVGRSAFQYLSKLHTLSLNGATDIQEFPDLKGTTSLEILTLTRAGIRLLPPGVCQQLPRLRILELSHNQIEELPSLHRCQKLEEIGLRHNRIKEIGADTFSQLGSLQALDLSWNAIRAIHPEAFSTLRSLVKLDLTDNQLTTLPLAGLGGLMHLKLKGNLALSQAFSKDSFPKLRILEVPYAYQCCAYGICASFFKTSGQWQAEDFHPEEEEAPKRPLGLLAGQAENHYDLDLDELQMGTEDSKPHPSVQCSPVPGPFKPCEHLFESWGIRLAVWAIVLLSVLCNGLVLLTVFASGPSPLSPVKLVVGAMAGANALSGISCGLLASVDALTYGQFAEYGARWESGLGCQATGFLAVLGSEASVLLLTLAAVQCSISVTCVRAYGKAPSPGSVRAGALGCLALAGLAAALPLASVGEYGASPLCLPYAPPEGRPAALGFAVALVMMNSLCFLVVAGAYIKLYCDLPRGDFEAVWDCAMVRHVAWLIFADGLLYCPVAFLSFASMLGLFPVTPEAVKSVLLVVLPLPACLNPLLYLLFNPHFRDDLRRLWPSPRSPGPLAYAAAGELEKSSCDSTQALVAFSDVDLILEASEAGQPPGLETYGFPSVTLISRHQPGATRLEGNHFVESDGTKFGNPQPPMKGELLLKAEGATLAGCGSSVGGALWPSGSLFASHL

T2: human LGR6 transgene (human, UniProt Q9HBX8 25-967)
T2 construct: whole, on cells; Overexpressed in HEK293T cells with N-terminal HA tag, V2 receptor tail and eGFP; also tested as lysate; also called hLGR6; LGR6-eGFP
T2 sequence (looked up): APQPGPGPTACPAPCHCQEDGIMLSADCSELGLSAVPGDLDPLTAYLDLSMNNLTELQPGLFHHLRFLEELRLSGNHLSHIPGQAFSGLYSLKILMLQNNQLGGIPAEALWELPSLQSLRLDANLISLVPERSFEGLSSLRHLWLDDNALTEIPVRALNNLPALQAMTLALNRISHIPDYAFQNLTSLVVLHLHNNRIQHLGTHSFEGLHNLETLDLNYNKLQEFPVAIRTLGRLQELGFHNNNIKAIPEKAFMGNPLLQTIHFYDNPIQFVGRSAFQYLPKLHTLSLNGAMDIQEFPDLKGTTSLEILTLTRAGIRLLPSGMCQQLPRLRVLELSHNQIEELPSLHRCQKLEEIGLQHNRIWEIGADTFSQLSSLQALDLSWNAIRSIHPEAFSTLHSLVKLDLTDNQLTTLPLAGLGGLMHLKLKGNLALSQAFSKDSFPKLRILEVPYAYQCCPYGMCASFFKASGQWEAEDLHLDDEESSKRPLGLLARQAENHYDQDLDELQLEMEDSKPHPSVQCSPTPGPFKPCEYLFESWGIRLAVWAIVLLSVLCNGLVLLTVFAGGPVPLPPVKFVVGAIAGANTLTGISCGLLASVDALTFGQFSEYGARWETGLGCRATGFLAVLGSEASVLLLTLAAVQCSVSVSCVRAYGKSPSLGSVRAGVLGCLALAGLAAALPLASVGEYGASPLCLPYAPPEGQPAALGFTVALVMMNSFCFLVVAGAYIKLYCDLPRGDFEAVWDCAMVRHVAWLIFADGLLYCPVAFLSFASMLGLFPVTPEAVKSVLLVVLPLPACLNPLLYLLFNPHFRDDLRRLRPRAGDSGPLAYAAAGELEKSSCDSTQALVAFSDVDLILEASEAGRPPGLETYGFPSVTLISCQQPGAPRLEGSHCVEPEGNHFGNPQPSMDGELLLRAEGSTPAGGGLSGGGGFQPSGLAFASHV

T3: RAD-displayed Fragment 1A of human LGR5 (human)
T3 construct: also called Frag1A
T3 sequence (O75473 22-37, looked up): GSSPRSGVLLRGCPTH

B1: hybridoma clone 12 (antibody, V domains shown)
VH: EVQLQQSGPELVKPGASVKISCKASGYTFTDYYMNWVKQSHGKSLEWIGDINPNNGGTIYNQKFKGKATLTVDKSSSTAYMELRSLTSEDSAVYYCASGYLFDYWGPGTTLTVSS
VL: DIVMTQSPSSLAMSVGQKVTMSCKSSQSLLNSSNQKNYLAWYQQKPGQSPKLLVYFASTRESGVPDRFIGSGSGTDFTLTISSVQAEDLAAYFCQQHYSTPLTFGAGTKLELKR
notes: Murine antibody; also called antibody 12
B2: α-LGR5 clone 1 (antibody, mouse IgG1, kappa, V domains shown)
VH: QVQLQQPGAELVKPGASVKLSCKASGYTFTSYWMQWVKQRPGQGLEWIGEIDPSDYYTNYNQKFKGKATLTVDTSSSTAYMQLSSLTSEDSAVYYCARSLSGYVDYWGQGTTLTVSS
VL: DIQMTQSTSSLSASLGDRVTINCRASQDIRNRLNWYQQKPDGTVKLLISYRSRLQSGVPSRFSGSGSGTEYSLTISNLEQEDIATYFCQQGNTLPPTFGGGTKLEVRR
notes: Murine monoclonal antibody from hybridoma; also called hybridoma clone 1; antibody 1
B3: α-LGR5 clone 3 (antibody, mouse IgG1, kappa, V domains shown)
VH: B2 VH with Y56S, T58S
VL: B2 VL with S7T, N22S, R30S, E70D, Q80E
notes: Murine monoclonal antibody from hybridoma; also called hybridoma clone 3; antibody 3
B4: α-LGR5 clone 4 (antibody, mouse IgG2b, kappa, V domains shown)
VH: B2 VH with S31D, Y56S, K65Q, M81I, E89D, Y103S
VL: B2 VL with S7T, N22S, R30S, E70D, S76T
notes: Murine monoclonal antibody from hybridoma; also called hybridoma clone 4; antibody 4
B5: α-LGR5 variant 4 (antibody, human IgG1, kappa, V domains shown)
VH: QVQLVQSGAEVKKPGASVKVSCKASGYTFTNYWMQWVRQAPGQGLEWIGEIDPSDSYTNYNQKFQGRVTLTVDTSTSTAYMELSSLRSEDTAVYYCARSLSGYVDYWGQGTTVTVSS
VL: EIVMTQSPATLSLSPGERATLSCRASQDISNRLNWYQQKPGQAVRLLISYRSRRHTGIPARFSGSGSGTDYTLTISSLEPEDFAVYYCQQGNSLPPTFGGGTKLEIKR
notes: Humanized antibody; also called α-LGR5v4; clone 2.4

molecular target: T4, human LGR4 transgene (human, UniProt Q9BXB1 25-951); assay: western blot of lysates of HEK293T cells expressing the LGR transgenes
T4 construct: whole, on cells; Overexpressed in HEK293T cells with N-terminal HA tag, V2 receptor tail and eGFP; also tested as lysate; also called hLGR4; LGR4-eGFP

binding result	Binder
no binding	B1
no binding	B2
no binding	B3
no binding	B4

molecular target: T5, murine LGR4 transgene (mouse, UniProt A2ARI4 25-951); assay: as above
T5 construct: whole, on cells; Overexpressed in HEK293T cells with N-terminal HA tag, V2 receptor tail and eGFP; also tested as lysate; also called mLGR4

binding result	Binder
no binding	B1
no binding	B2
no binding	B3
no binding	B4

molecular target: T1, murine LGR6 transgene; assay: as above

binding result	Binder
no binding	B1
no binding	B2
no binding	B3
no binding	B4

molecular target: T2, human LGR6 transgene; assay: as above

binding result	Binder
no binding	B1
no binding	B2
no binding	B3
no binding	B4

molecular target: T4, human LGR4 transgene; assay: immunofluorescence of HEK293T cells expressing LGR-eGFP transgenes with α-LGR5v4
Description: (§1) B. Indirect immune fluorescence analysis of human and murine LGR family expressing HEK293T cells using the a-LGR5v4 antibody (in red), the Alexa488-coupled Phalloidin F-actin probe alongside eGFP fluorescence imaging. In the bottom row of images, LGR5-expressing HEK293T cells were stained with a-LGR5v6. C. H&E staining of tissue sections from a-LGR5v6-ADC (top row) and a-LGR5v4-ADC (bottom row) treated mice.

binding result	Binder
no binding	B5

molecular target: T5, murine LGR4 transgene; assay: as above
Description: as §1

binding result	Binder
no binding	B5

molecular target: T3, RAD-displayed Fragment 1A of human LGR5; assay: bio-layer interferometry (Octet), captured RAD-displayed fragment, 10 µM Fragment 1 peptide included

Kd	Binder
0.76 nM	B2
1 nM	B3
1.4 nM	B4
